Square brackets hold non-standard residues; d marks the D form. Primed or numbered codes have the meaning given here. * marks the point of attachment. m‑dPEG(4)″ = m-dPEG(4) acid, coupled to Acp (R^111 group of Formula (4)), COCCOCCOCCOCCC(=O)*; m‑dPEG(4) = m-dPEG(4) acid, coupled to Acp, with Acp forms R^111 of Formula (4); Propanoyl(3,3-Ph2) = O=C(CC(c1ccccc1)c1ccccc1)*; 2Nal = N[C@@H](Cc1ccc2ccccc2c1)C(=O)O; Chg = N[C@H](C(=O)O)C1CCCCC1; R^118 = not defined here; Ahx = NCCCCCC(=O)O
T1: myostatin (UniProt O14793 267-375, limits assumed)
T1 sequence (looked up): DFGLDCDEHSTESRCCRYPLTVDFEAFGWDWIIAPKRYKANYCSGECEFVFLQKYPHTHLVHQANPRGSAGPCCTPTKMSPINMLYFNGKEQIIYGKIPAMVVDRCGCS


Biological target: T1, myostatin
Experiment: cell-based or functional assay

Binder	myostatin inhibitory activity at 1 µM (luciferase reporter assay)	myostatin inhibitory activity at 0.3 µM (luciferase reporter assay)	IC50 of the myostatin inhibitory activity (luciferase reporter assay, 0.016 to 2 µM)
{m‑dPEG(4)″-Ahx}-[2Nal]YIEWIKIQIISKLRL-NH2 (SMILES CC[C@H](C)[C@H](NC(=O)[C@H](Cc1ccc(O)cc1)NC(=O)[C@H](Cc1ccc2ccccc2c1)NC(=O)CCCCCNC(=O)CCOCCOCCOCCOC)C(=O)N[C@@H](CCC(=O)O)C(=O)N[C@@H](Cc1c[nH]c2ccccc12)C(=O)N[C@H](C(=O)N[C@@H](CCCCN)C(=O)N[C@H](C(=O)N[C@@H](CCC(N)=O)C(=O)N[C@H](C(=O)N[C@H](C(=O)N[C@@H](CO)C(=O)N[C@@H](CCCCN)C(=O)N[C@@H](CC(C)C)C(=O)N[C@@H](CCCNC(=N)N)C(=O)N[C@@H](CC(C)C)C(N)=O)[C@@H](C)CC)[C@@H](C)CC)[C@@H](C)CC)[C@@H](C)CC) [PDM-31]	≥ 40 % inhibition	–	–
{R^118}-RQNTRYSRIEWIKIQIISKLRL-NH2 (reading uncertain; also: N-terminal R118 group (Formula 11) structure not given here, printed as R118-RQNTRYSRIEWIKIQIISKLRL-NH2) [3d]	–	–	273 nM
{m‑dPEG(4)-Ahx}-YYIEWIKIQIISKLRL-NH2 [PDM-29]	≥ 40 % inhibition	–	–
{m‑dPEG(4)-Ahx}-WWIEWIKIQIISKLRL-NH2 [PDM-30]	≥ 40 % inhibition	–	–
H-AWYIRWIKIQIWSKLRL-NH2 [A-nPDM-55/E31R]	–	≥ 40 % inhibition	–
H-WYIRWIKIQIWSK[Chg]RL-NH2 (SMILES CC[C@H](C)[C@H](NC(=O)[C@H](CCC(N)=O)NC(=O)[C@@H](NC(=O)[C@H](CCCCN)NC(=O)[C@@H](NC(=O)[C@H](Cc1c[nH]c2ccccc12)NC(=O)[C@H](CCCNC(=N)N)NC(=O)[C@@H](NC(=O)[C@H](Cc1ccc(O)cc1)NC(=O)[C@@H](N)Cc1c[nH]c2ccccc12)[C@@H](C)CC)[C@@H](C)CC)[C@@H](C)CC)C(=O)N[C@@H](Cc1c[nH]c2ccccc12)C(=O)N[C@@H](CO)C(=O)N[C@@H](CCCCN)C(=O)N[C@H](C(=O)N[C@@H](CCCNC(=N)N)C(=O)N[C@@H](CC(C)C)C(N)=O)C1CCCCC1) [nPDM-65]	≥ 40 % inhibition	≥ 40 % inhibition	–
{m‑dPEG(4)-Ahx}-FYIEWIKIQIISKLRL-NH2 [PDM-32]	≥ 40 % inhibition	–	–
{Propanoyl(3,3-Ph2)}-YIRWIR[Chg]QIWSR[Chg]PL-NH2 (SMILES CC[C@H](C)[C@H](NC(=O)[C@H](Cc1ccc(O)cc1)NC(=O)CC(c1ccccc1)c1ccccc1)C(=O)N[C@@H](CCCNC(=N)N)C(=O)N[C@@H](Cc1c[nH]c2ccccc12)C(=O)N[C@H](C(=O)N[C@@H](CCCNC(=N)N)C(=O)N[C@H](C(=O)N[C@@H](CCC(N)=O)C(=O)N[C@H](C(=O)N[C@@H](Cc1c[nH]c2ccccc12)C(=O)N[C@@H](CO)C(=O)N[C@@H](CCCNC(=N)N)C(=O)N[C@H](C(=O)N1CCC[C@H]1C(=O)N[C@@H](CC(C)C)C(N)=O)C1CCCCC1)[C@@H](C)CC)C1CCCCC1)[C@@H](C)CC) [3,3-diphenylpropionyl-nPDM-85]	–	≥ 40 % inhibition	–

Continued, values first:

myostatin inhibitory activity at 1 µM (luciferase reporter assay)	myostatin inhibitory activity at 0.3 µM (luciferase reporter assay)	IC50 of the myostatin inhibitory activity (luciferase reporter assay, 0.016 to 2 µM)	Binder
–	≥ 40 % inhibition	–	H-WYIRWIR[Chg]QIWPR[Chg]RL-NH2 (SMILES CC[C@H](C)[C@H](NC(=O)[C@H](Cc1ccc(O)cc1)NC(=O)[C@@H](N)Cc1c[nH]c2ccccc12)C(=O)N[C@@H](CCCNC(=N)N)C(=O)N[C@@H](Cc1c[nH]c2ccccc12)C(=O)N[C@H](C(=O)N[C@@H](CCCNC(=N)N)C(=O)N[C@H](C(=O)N[C@@H](CCC(N)=O)C(=O)N[C@H](C(=O)N[C@@H](Cc1c[nH]c2ccccc12)C(=O)N1CCC[C@H]1C(=O)N[C@@H](CCCNC(=N)N)C(=O)N[C@H](C(=O)N[C@@H](CCCNC(=N)N)C(=O)N[C@@H](CC(C)C)C(N)=O)C1CCCCC1)[C@@H](C)CC)C1CCCCC1)[C@@H](C)CC) [nPDM-75]
–	≥ 40 % inhibition	–	H-WYIRWIK[Chg]QIWSR[Chg]RL-NH2 (SMILES CC[C@H](C)[C@H](NC(=O)[C@H](CCC(N)=O)NC(=O)[C@@H](NC(=O)[C@H](CCCCN)NC(=O)[C@@H](NC(=O)[C@H](Cc1c[nH]c2ccccc12)NC(=O)[C@H](CCCNC(=N)N)NC(=O)[C@@H](NC(=O)[C@H](Cc1ccc(O)cc1)NC(=O)[C@@H](N)Cc1c[nH]c2ccccc12)[C@@H](C)CC)[C@@H](C)CC)C1CCCCC1)C(=O)N[C@@H](Cc1c[nH]c2ccccc12)C(=O)N[C@@H](CO)C(=O)N[C@@H](CCCNC(=N)N)C(=O)N[C@H](C(=O)N[C@@H](CCCNC(=N)N)C(=O)N[C@@H](CC(C)C)C(N)=O)C1CCCCC1) [nPDM-70]
–	≥ 40 % inhibition	–	H-WYIRWIR[Chg]QIWSK[Chg]RL-NH2 (SMILES CC[C@H](C)[C@H](NC(=O)[C@H](CCC(N)=O)NC(=O)[C@@H](NC(=O)[C@H](CCCNC(=N)N)NC(=O)[C@@H](NC(=O)[C@H](Cc1c[nH]c2ccccc12)NC(=O)[C@H](CCCNC(=N)N)NC(=O)[C@@H](NC(=O)[C@H](Cc1ccc(O)cc1)NC(=O)[C@@H](N)Cc1c[nH]c2ccccc12)[C@@H](C)CC)[C@@H](C)CC)C1CCCCC1)C(=O)N[C@@H](Cc1c[nH]c2ccccc12)C(=O)N[C@@H](CO)C(=O)N[C@@H](CCCCN)C(=O)N[C@H](C(=O)N[C@@H](CCCNC(=N)N)C(=O)N[C@@H](CC(C)C)C(N)=O)C1CCCCC1) [nPDM-71]
≥ 40 % inhibition	–	–	H-WYFRWIKIQIWSKLRL-NH2 [nPDM-67]
≥ 40 % inhibition	≥ 40 % inhibition	–	H-WYIRWIK[Chg]QIWSK[Chg]RL-NH2 (SMILES CC[C@H](C)[C@H](NC(=O)[C@H](CCC(N)=O)NC(=O)[C@@H](NC(=O)[C@H](CCCCN)NC(=O)[C@@H](NC(=O)[C@H](Cc1c[nH]c2ccccc12)NC(=O)[C@H](CCCNC(=N)N)NC(=O)[C@@H](NC(=O)[C@H](Cc1ccc(O)cc1)NC(=O)[C@@H](N)Cc1c[nH]c2ccccc12)[C@@H](C)CC)[C@@H](C)CC)C1CCCCC1)C(=O)N[C@@H](Cc1c[nH]c2ccccc12)C(=O)N[C@@H](CO)C(=O)N[C@@H](CCCCN)C(=O)N[C@H](C(=O)N[C@@H](CCCNC(=N)N)C(=O)N[C@@H](CC(C)C)C(N)=O)C1CCCCC1) [nPDM-66]
–	≥ 40 % inhibition	–	H-WYIRWIR[Chg]PIWSR[Chg]RL-NH2 (SMILES CC[C@H](C)[C@H](NC(=O)[C@H](Cc1ccc(O)cc1)NC(=O)[C@@H](N)Cc1c[nH]c2ccccc12)C(=O)N[C@@H](CCCNC(=N)N)C(=O)N[C@@H](Cc1c[nH]c2ccccc12)C(=O)N[C@H](C(=O)N[C@@H](CCCNC(=N)N)C(=O)N[C@H](C(=O)N1CCC[C@H]1C(=O)N[C@H](C(=O)N[C@@H](Cc1c[nH]c2ccccc12)C(=O)N[C@@H](CO)C(=O)N[C@@H](CCCNC(=N)N)C(=O)N[C@H](C(=O)N[C@@H](CCCNC(=N)N)C(=O)N[C@@H](CC(C)C)C(N)=O)C1CCCCC1)[C@@H](C)CC)C1CCCCC1)[C@@H](C)CC) [nPDM-76]
–	≥ 40 % inhibition	–	H-WYIRWIR[Chg]QIWSR[Chg]PL-NH2 [nPDM-73]
≥ 40 % inhibition	≥ 40 % inhibition	–	H-YYIR[2Nal]IKIQIWSKLRL-NH2 (SMILES CC[C@H](C)[C@H](NC(=O)[C@H](CCC(N)=O)NC(=O)[C@@H](NC(=O)[C@H](CCCCN)NC(=O)[C@@H](NC(=O)[C@H](Cc1ccc2ccccc2c1)NC(=O)[C@H](CCCNC(=N)N)NC(=O)[C@@H](NC(=O)[C@H](Cc1ccc(O)cc1)NC(=O)[C@@H](N)Cc1ccc(O)cc1)[C@@H](C)CC)[C@@H](C)CC)[C@@H](C)CC)C(=O)N[C@@H](Cc1c[nH]c2ccccc12)C(=O)N[C@@H](CO)C(=O)N[C@@H](CCCCN)C(=O)N[C@@H](CC(C)C)C(=O)N[C@@H](CCCNC(=N)N)C(=O)N[C@@H](CC(C)C)C(N)=O) [nPDM-69]
–	≥ 40 % inhibition	–	H-WYIRWIR[Chg]QIWSR[Chg]RL-NH2 (SMILES CC[C@H](C)[C@H](NC(=O)[C@H](CCC(N)=O)NC(=O)[C@@H](NC(=O)[C@H](CCCNC(=N)N)NC(=O)[C@@H](NC(=O)[C@H](Cc1c[nH]c2ccccc12)NC(=O)[C@H](CCCNC(=N)N)NC(=O)[C@@H](NC(=O)[C@H](Cc1ccc(O)cc1)NC(=O)[C@@H](N)Cc1c[nH]c2ccccc12)[C@@H](C)CC)[C@@H](C)CC)C1CCCCC1)C(=O)N[C@@H](Cc1c[nH]c2ccccc12)C(=O)N[C@@H](CO)C(=O)N[C@@H](CCCNC(=N)N)C(=O)N[C@H](C(=O)N[C@@H](CCCNC(=N)N)C(=O)N[C@@H](CC(C)C)C(N)=O)C1CCCCC1) [nPDM-72]
–	≥ 40 % inhibition	–	H-WYIRWIP[Chg]QIWSR[Chg]RL-NH2 (SMILES CC[C@H](C)[C@H](NC(=O)[C@H](CCC(N)=O)NC(=O)[C@@H](NC(=O)[C@@H]1CCCN1C(=O)[C@@H](NC(=O)[C@H](Cc1c[nH]c2ccccc12)NC(=O)[C@H](CCCNC(=N)N)NC(=O)[C@@H](NC(=O)[C@H](Cc1ccc(O)cc1)NC(=O)[C@@H](N)Cc1c[nH]c2ccccc12)[C@@H](C)CC)[C@@H](C)CC)C1CCCCC1)C(=O)N[C@@H](Cc1c[nH]c2ccccc12)C(=O)N[C@@H](CO)C(=O)N[C@@H](CCCNC(=N)N)C(=O)N[C@H](C(=O)N[C@@H](CCCNC(=N)N)C(=O)N[C@@H](CC(C)C)C(N)=O)C1CCCCC1) [nPDM-77]

From patent publication US20190177370A1 (TOKYO UNIVERSITY OF PHARMACY AND LIFE SCIENCES, published 2019)
